We go through 21 substances from PMC8799719.

In the first test the target is insoluble type I collagen fibers from bovine achilles tendon, P02453;P02465. Description: fluorescence detection of EGFP fusion binding to collagen. The note with it: parent: est. 100; read off a plot.
Turning to “EGFP-PPC (PPC domain of VhaC fused to EGFP) W761A”, the percent of parent is 7%. On the same count and under the same terms, under “EGFP-PPC (PPC domain of VhaC fused to EGFP) W729A” stands 58%; under “EGFP-PPC (PPC domain of VhaC fused to EGFP) W770A”, 100%; under “EGFP-PPC (PPC domain of VhaC fused to EGFP) K753A”, 100%. On the same count and under the same terms, the result for “EGFP-PPC (PPC domain of VhaC fused to EGFP) Y788A” reads 73%. The same measure, in the same setting: under “EGFP-PPC (PPC domain of VhaC fused to EGFP) W789A” stands 19%; under “EGFP-PPC (PPC domain of VhaC fused to EGFP) E778A”, 21%.

As to “EGFP-PPC (PPC domain of VhaC fused to EGFP) D751A”, the percent of parent was 3%. The same measure, in the same setting: under “EGFP-PPC (PPC domain of VhaC fused to EGFP) Y756A” stands 9%; under “EGFP-PPC (PPC domain of VhaC fused to EGFP) E755A”, 51%; under “EGFP-PPC (PPC domain of VhaC fused to EGFP) Y791A”, 13%.

For the next test the target is unchanged. Description: fluorescence detection of EGFP fusion binding to collagen fibers. The note with it: parent: est. 100; read off a plot.
Regarding “activator domain-EGFP (VhaC activator domain fused to EGFP) F107A”, the percent of parent is 20%. Same read-out and setting: under “activator domain-EGFP (VhaC activator domain fused to EGFP) R153A” stands 32%; under “activator domain-EGFP (VhaC activator domain fused to EGFP) F160A”, 86%. For “activator domain-EGFP (VhaC activator domain fused to EGFP) F286A”, the percent of parent came out at 51%.

For the substance “activator domain-EGFP (VhaC activator domain fused to EGFP) E294A”, the percent of parent worked out at 85%.

Consider “activator domain-EGFP (VhaC activator domain fused to EGFP) W234A”, for which the percent of parent is 69%.

With “activator domain-EGFP (VhaC activator domain fused to EGFP) R293A”, the percent of parent was 93%. On the same count and under the same terms, the result for “activator domain-EGFP (VhaC activator domain fused to EGFP) D207A” reads 70%. In the case of “activator domain-EGFP (VhaC activator domain fused to EGFP) N290A”, the percent of parent amounted to 88%. For “activator domain-EGFP (VhaC activator domain fused to EGFP) Y157A”, the percent of parent is 42%.
